PMC10657410

Target: GST-ApCaV2a1 C-terminal fragment 1 with the putative RxLPxxP site removed (Aplysia californica)
Test: pull-down; GST protein on glutathione beads rotated with His-tag protein eluate overnight at 4 °C; washed 4 x 10 min with PBS; eluted by boiling; SDS-PAGE, Ponceau stain and blot with anti-His antibody

**Q.** Which percent of binding remaining does the source give for “His-SH3-3 domain of Aplysia RIM-binding protein (ApRBP) (domain or fragment)” here?
**A.** 26%
